Earlier results, collected in paper PMC3309041.

Molecular target: IL-8 (monomeric) (Homo sapiens) (UniProt P10145)
Settings: cited from earlier work

Chain of CXCR1 N-terminal peptide N-terminus (P21109 11-44): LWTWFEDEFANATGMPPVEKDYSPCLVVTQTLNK
Chain of IL-8 (monomeric) (Homo sapiens) (P10145 28-99): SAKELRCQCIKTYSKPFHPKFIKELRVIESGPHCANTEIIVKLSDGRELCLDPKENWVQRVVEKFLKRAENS

CXCR1 N-terminal peptide N-terminus (from UniProt P21109)
Kd: 8.6 µM
